The supplement of paper PMC9233669
Variants at the floor of the assay were thinned out.

Assays:
biotinyl-Phe-oxazolone = assay: self-aminoacylation, catalytic enhancement (BFO) (fold over background); higher = more active; k-Seq, kA / k0A0; sequences stand for … in GGGAAUGGAUCCACAUCUACGAAUUC…UUCACUGCAGACUUGACGAAGCUG
In short: (§1)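 Mutagenized RNA pools with a 21-nt variable region (0.43 μM) were reacted with each biotinyl-aminoacyl-oxazolone at 2–1250 μM for 90 minutes at room temperature, in 50 μL HEPES/NaCl/KCl/MgCl2/CaCl2 buffer containing 5% acetonitrile at pH 6.9–7.0. RNA captured on streptavidin was quantified by triplicate qPCR and by Illumina sequencing. The fraction reacted for each sequence was fit to a pseudo-first-order model with bootstrapping, and catalytic enhancement is the median kA divided by the uncatalyzed rate, taken as the low-activity peak of a bimodal Gaussian fit.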

biotinyl-Ile-oxazolone = assay: self-aminoacylation, catalytic enhancement (BIO) (fold over background); higher = more active; k-Seq, kA / k0A0; sequences stand for … in GGGAAUGGAUCCACAUCUACGAAUUC…UUCACUGCAGACUUGACGAAGCUG
In short: as §1

biotinyl-Met-oxazolone = assay: self-aminoacylation, catalytic enhancement (BMO) (fold over background); higher = more active; k-Seq, kA / k0A0; sequences stand for … in GGGAAUGGAUCCACAUCUACGAAUUC…UUCACUGCAGACUUGACGAAGCUG
In short: as §1

biotinyl-Val-oxazolone = assay: self-aminoacylation, catalytic enhancement (BVO) (fold over background); higher = more active; k-Seq, kA / k0A0; sequences stand for … in GGGAAUGGAUCCACAUCUACGAAUUC…UUCACUGCAGACUUGACGAAGCUG
In short: as §1

biotinyl-Leu-oxazolone = assay: self-aminoacylation, catalytic enhancement (BLO) (fold over background); higher = more active; k-Seq, kA / k0A0; sequences stand for … in GGGAAUGGAUCCACAUCUACGAAUUC…UUCACUGCAGACUUGACGAAGCUG
In short: as §1

biotinyl-Trp-oxazolone = assay: self-aminoacylation, catalytic enhancement (BWO) (fold over background); higher = more active; k-Seq, kA / k0A0; sequences stand for … in GGGAAUGGAUCCACAUCUACGAAUUC…UUCACUGCAGACUUGACGAAGCUG
In short: as §1

Sequence | self-aminoacylation (biotinyl-Phe-oxazolone) | self-aminoacylation (biotinyl-Ile-oxazolone) | self-aminoacylation (biotinyl-Met-oxazolone) | self-aminoacylation (biotinyl-Val-oxazolone) | self-aminoacylation (biotinyl-Leu-oxazolone) | self-aminoacylation (biotinyl-Trp-oxazolone)
AUUACCCUUGUCAUUGAGUGA [Fam2.1 aminoacylation ribozyme variant] | 34 | 4.11 | 8.1 | 4.34 | 8.5 | 10.6
AUUACCGUAGUCAUCGAGUGA [Fam2.1 aminoacylation ribozyme variant] | 26 | 2.94 | 4.79 | 3.22 | 5.83 | 7.23
AUUACCGUGGUCACCGAGUGA [Fam2.1 aminoacylation ribozyme variant] | 9.08 | 2.39 | 3.87 | 2.83 | 3.65 | 2.95
AUUACCGUGGUCAUAGAGUGA [Fam2.1 aminoacylation ribozyme variant] | 35.7 | 3.67 | 7.8 | 3.97 | 6.95 | 7.99
AUUACCGUGGUCAUCGCGUGA [Fam2.1 aminoacylation ribozyme variant] | 140 | 8.94 | 17.7 | 11 | 21.5 | 22.2
AUUACCGUGGUCAUCUAGUGA [Fam2.1 aminoacylation ribozyme variant] | 31.2 | 3.29 | 6.98 | 3.82 | 6.26 | 7.82
AUUACCGUGGUCAUUGAGUGA [Fam2.1 aminoacylation ribozyme variant] | 28.2 | 3.37 | 5.36 | 3.21 | 6 | 7.1
AUUACCUUAGUCAUCGAGUGA [Fam2.1 aminoacylation ribozyme variant] | 14.8 | 2.71 | 4.41 | 2.59 | 4.62 | 5.48
AUUACCUUGGGCAUCGAGUGA [Fam2.1 aminoacylation ribozyme variant] | 17.4 | 2.87 | 5.33 | 2.91 | 5.27 | 6.65
AUUACCUUGGUCAUAGAGUGA [Fam2.1 aminoacylation ribozyme variant] | 25.4 | 3.58 | 6.82 | 3.69 | 7.24 | 9.04
AUUACCUUGGUCAUCAAGUGA [Fam2.1 aminoacylation ribozyme variant] | 3.79 | 1.97 | 3.32 | 1.92 | 3.54 | 4.02
AUUACCUUGGUCAUCGAGUGU [Fam2.1 aminoacylation ribozyme variant] | 3.39 | 2.19 | 3.47 | 2.37 | 3.59 | 3.8
AUUACCUUGGUCAUCGAUUGA [Fam2.1 aminoacylation ribozyme variant] | 0.71 | 0.907 | 0.916 | 0.824 | 0.855 | 0.601
AUUACCUUGGUCAUCGUGUGA [Fam2.1 aminoacylation ribozyme variant] | 16.2 | 1.53 | 2.55 | 1.57 | 2.71 | 3.57
AUUACCUUGGUGAUCGAGUGA [Fam2.1 aminoacylation ribozyme variant] | 19.7 | 2.25 | 4.39 | 2.32 | 4.39 | 5.81
AUUACCUUGUUCAUCGAGUGA [Fam2.1 aminoacylation ribozyme variant] | 26.1 | 3.4 | 6.95 | 3.95 | 6.6 | 8.47
AUUACGCUGAUCAUCGAGUGA [Fam2.1 aminoacylation ribozyme variant] | 15 | 3.16 | 5.61 | 3.36 | 5.8 | 6.11
AUUACGCUGGUCAACGAGUGA [Fam2.1 aminoacylation ribozyme variant] | 5.51 | 2.42 | 3.33 | 2.71 | 3 | 3.71
AUUACGCUGGUCAGCGAGUGA [Fam2.1 aminoacylation ribozyme variant] | 21.2 | 3.34 | 4.57 | 2.4 | 4.3 | 4.4
AUUACGCUGGUCAUCGAGUUA [Fam2.1 aminoacylation ribozyme variant] | 0.893 | 1.28 | 1.54 | 1.43 | 1.41 | 0.917
AUUACGCUGGUCAUCGAUUGA [Fam2.1 aminoacylation ribozyme variant] | 0.858 | 1.18 | 1.29 | 1.18 | 1.24 | 1.41
AUUACGCUGGUCGUCGAGUGA [Fam2.1 aminoacylation ribozyme variant] | 4.94 | 1.37 | 1.25 | 1.36 | 1.49 | 1.37
AUUACGUUGGUCAUCGAGUGA [Fam2.1 aminoacylation ribozyme variant] | 11.7 | 3.1 | 4.23 | 3.18 | 4.86 | 5.9
